Laboratory results reported in US20230340098A1 (SHANGHAI HENLIUS BIOTECH, published 2023).
Like-named read-outs stand apart in the source and are kept apart here.

Experiments:
[1] = target: T1, human GARP/TGFβ1 complex (protein used in ELISA and Octet) (human, UniProt Q14392 20-627; P01137 30-390, limits assumed); experiment: Octet
T1 construct: Coated on plates at 4 µg/ml in the ELISA; also called hGARP/TGFβ1; human GARP/latent TGFβ1 complex

[2] = target: T2, human GARP protein not in any GARP/TGFβ1 complex (protein used in ELISA and Octet) (human, UniProt Q14392 20-627, limits assumed); experiment: Octet
T2 construct: Coated on plates at 2 µg/ml in the ELISA; also called hGARP; human GARP alone
T2 sequence (looked up): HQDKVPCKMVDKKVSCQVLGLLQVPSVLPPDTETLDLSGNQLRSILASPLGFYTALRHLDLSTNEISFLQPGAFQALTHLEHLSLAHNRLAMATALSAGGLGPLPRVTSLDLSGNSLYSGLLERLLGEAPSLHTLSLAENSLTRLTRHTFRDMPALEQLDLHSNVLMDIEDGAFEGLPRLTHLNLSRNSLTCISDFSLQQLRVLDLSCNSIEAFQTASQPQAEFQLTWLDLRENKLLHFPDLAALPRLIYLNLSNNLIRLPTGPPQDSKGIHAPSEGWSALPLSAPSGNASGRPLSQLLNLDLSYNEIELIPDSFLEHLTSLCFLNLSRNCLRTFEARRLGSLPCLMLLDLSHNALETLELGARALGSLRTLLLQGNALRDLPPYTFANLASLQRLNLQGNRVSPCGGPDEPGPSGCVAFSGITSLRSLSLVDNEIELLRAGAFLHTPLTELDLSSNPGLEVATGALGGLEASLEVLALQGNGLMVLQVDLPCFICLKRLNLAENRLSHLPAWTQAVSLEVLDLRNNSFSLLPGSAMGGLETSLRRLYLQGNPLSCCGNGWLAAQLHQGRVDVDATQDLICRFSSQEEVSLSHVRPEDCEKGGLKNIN

[3] = target: T3, human GARP/latent TGFβ1 complex on cells (human, UniProt Q14392 20-662; P01137 30-390); experiment: flow cytometry on human GARP/latent TGFβ1 transfected CHO-S cells, goat anti-human IgG(H+L) FITC
T3 construct: whole, on cells; also called human GARP/TGFβ1 complex; human GARP/TGFβ complex

[4] = target: T3, human GARP/latent TGFβ1 complex on cells; experiment: as above; remark: listed apart in the source
[5] = target: T4, mouse GARP/latent TGFβ1 complex on transfected CHO-S cells (mouse); experiment: flow cytometry on mouse GARP/latent TGFβ1 transfected CHO-S cells, goat anti-human IgG(H+L) FITC
T4 construct: also called mouse GARP/TGFβ1 complex; mouse GARP/TGFβ complex

B1: Clone hGA17 (antibody, human IgG1, kappa, V domains shown)
VH: QVQLVQSGAEVKKPGASVKVSCKASGFNIKDTYFHWVRQAPGQGLEWMGRIDPTNGNGRYAQKFQGRVTMTRDTSTSTVYMELSSLRSEDTAVYYCATSTGTGYFALVYWGQGTTVTVSS
VL: DIQLTQSPSFLSASVGDRVTITCKASQNVGSAVAWYQQKPGKAPKLLIYWSSTRHTGVPSRFSGSGSGTEFTLTISSLQPEDFATYYCQQYSNYPLTFGGGTKLEIKR
notes: Humanized form of mouse clone GA17; kappa light chain
B1 was tested, and the Kd [1] was 0.696 nM and the Kd [2] was 0.429 nM.

B2: Clone GA1#7 (antibody, V domains shown)
VH: QVQLVQSGGGVVQPGRSLRLSCAASGFTFSSYAMHQVRQAPGKGLEWVAVISYDGSQKYYADSVKGRFTISRDNSKNTLYLQMNSLRAEDTAVYYCARDALRTYYYYGMDVWGQGTTVTVSS
VL: SYELTQPPSVSVSPGQTARITCSGDALPDRYTYWYQQKPGQAPVLVIYSDNERPSGIPERFSGSSSGTTATLTINGVQAEDEADYYCQSSDDTYTFGGGTKLTVL
B2 was tested, and the “EC50 (read off the curve)” value [3] was roughly 1 mg/L.

B3: Clone GA1#8 (antibody, V domains shown)
VH: QVQLVQSGGGVVQPGRSLRLSCAASGFTFSSYAMHQVRQAPGKGLEWVASISYDGSNKYYADSVKGRFTISRDNSKNTLYLQMNSLRAEDTAVYYCARDALRTYYYQGMDVWGQGTTVTVSS
VL: SYELTQPPSVSVSPGQTARITCSGDALPDRYTYWYQQKPGQAPVLVIYSDNERPRGIPERFSGSSSGTTATLTINGVQAEDEADYYCQSADYTYTFGGGTKLTVL
For B3, the Kd [1] was 0.281 nM and the “EC50 (read off the curve)” value [3] was roughly 1 mg/L.

B4: Clone GA1 (antibody, V domains shown)
VH: QVQLVQSGGGVVQPGRSLRLSCAASGFTFSSYAMHQVRQAPGKGLEWVAVISYDGSNKYYADSVKGRFTISRDNSKNTLYLQMNSLRAEDTAVYYCARDVLRTYYYYGMDVWGQGTTVTVSS
VL: SYELTQPPSVSVFPGQTARITCSGDALPDRYTYWYQQKPGQAPVLVIYSDNERPSGIPERFSGSSSGTIATLTINGVQAEDEADYYCQSADDTYTFGGGTKLTVL
For B4, the “EC50 (read off the curve)” value [4] was roughly 0.6 mg/L, the “EC50 (read off the curve)” value [5] was roughly 0.2 mg/L and the “EC50 (read off the curve)” value [3] was roughly 1 mg/L.
